This is an account of results in US20220175921A1.

For assay [1], the target named is human GITR, membrane bound (on activated human T cells or on 3A9-hGITR cells) (UniProt Q9Y5U5). The experiment in a line: FACS binding; activated human CD8 T cells. As to conditions: ligand.
For assay [2] the target is unchanged. The experiment in a line: cell-based or functional assay.

Chain of human GITR, membrane bound (on activated human T cells or on 3A9-hGITR cells) (Q9Y5U5 26-241): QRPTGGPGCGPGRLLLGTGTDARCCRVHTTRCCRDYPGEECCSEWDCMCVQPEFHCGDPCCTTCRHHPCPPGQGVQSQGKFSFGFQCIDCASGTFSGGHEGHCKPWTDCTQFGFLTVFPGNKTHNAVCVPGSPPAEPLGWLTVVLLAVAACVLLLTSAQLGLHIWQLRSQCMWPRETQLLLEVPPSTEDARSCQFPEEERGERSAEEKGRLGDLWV
Chain of recombinant human GITR ligand trimer (R&D Systems 6987-GL) (Q9UNG2 49-177): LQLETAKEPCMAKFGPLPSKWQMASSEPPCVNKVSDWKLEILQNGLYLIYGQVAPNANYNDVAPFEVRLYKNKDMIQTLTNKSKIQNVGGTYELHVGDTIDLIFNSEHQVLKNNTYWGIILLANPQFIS

As for “recombinant human GITR ligand trimer (R&D Systems 6987-GL) (from UniProt Q9UNG2 49-177)”, the IC50 in assay [1] is 0.0163 µg/mL.

In assay [2], hIgG1 Isotype Control (antibody) gave an NFKB signaling (phospho-p65) Emax, CD4+ T cells of 4% and an NFKB signaling (phospho-p65) Emax, CD8+ T cells of 6%.

Usually IC50 stands for the midpoint of a concentration-inhibition curve.
